Data published in patent US20200048371A1 (Zymeworks, published 2020).

B1: construct 18532 (CD40 X HER2; 12E12, Pertuzumab; Fab x scFv) (bispecific antibody, human IgG1, kappa, L234A L235A)
heavy: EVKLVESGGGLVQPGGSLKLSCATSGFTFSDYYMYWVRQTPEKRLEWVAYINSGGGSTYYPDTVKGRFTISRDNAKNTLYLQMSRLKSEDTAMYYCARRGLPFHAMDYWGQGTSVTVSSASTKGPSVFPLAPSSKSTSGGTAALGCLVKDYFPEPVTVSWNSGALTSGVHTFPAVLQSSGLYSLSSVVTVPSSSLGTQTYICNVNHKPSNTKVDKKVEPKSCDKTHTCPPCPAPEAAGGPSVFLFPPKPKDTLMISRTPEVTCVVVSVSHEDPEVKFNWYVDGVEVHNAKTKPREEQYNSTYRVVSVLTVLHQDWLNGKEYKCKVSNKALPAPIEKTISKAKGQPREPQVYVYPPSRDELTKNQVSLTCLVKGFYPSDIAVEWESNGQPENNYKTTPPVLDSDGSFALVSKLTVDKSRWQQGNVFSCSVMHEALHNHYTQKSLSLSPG
light: DIQMTQTTSSLSASLGDRVTISCSASQGISNYLNWYQQKPDGTVKLLIYYTSILHSGVPSRFSGSGSGTDYSLTIGNLEPEDIATYYCQQFNKLPPTFGGGTKLEIKRTVAAPSVFIFPPSDEQLKSGTASVVCLLNNFYPREAKVQWKVDNALQSGNSQESVTEQDSKDSTYSLSSTLTLSKADYEKHKVYACEVTHQGLSSPVTKSFNRGEC
scFv: DIQMTQSPSSLSASVGDRVTITCKASQDVSIGVAWYQQKPGKAPKLLIYSASYRYTGVPSRFSGSGSGTDFTLTISSLQPEDFATYYCQQYYIYPATFGQGTKVEIKVEGGSGGSGGSGGSGGVDEVQLVESGGGLVQPGGSLRLSCAASGFTFADYTMDWVRQAPGKGLEWVGDVNPNSGGSIYNQRFKGRFTFSVDRSKNTLYLQMNSLRAEDTAVYYCARNLGPSFYFDYWGQGTLVTVSSAAEPKSSDKTHTCPPCPAPEAAGGPSVFLFPPKPKDTLMISRTPEVTCVVVSVSHEDPEVKFNWYVDGVEVHNAKTKPREEQYNSTYRVVSVLTVLHQDWLNGKEYKCKVSNKALPAPIEKTISKAKGQPREPQVYVLPPSRDELTKNQVSLLCLVKGFYPSDIAVEWESNGQPENNYLTWPPVLDSDGSFFLYSKLTVDKSRWQQGNVFSCSVMHEALHNHYTQKSLSLSPG
notes: also called v18532; Her2×CD40
B2: construct 18529 (DEC-205 X HER2; 3G9, Pertuzumab; Fab x scFv) (bispecific antibody, human IgG1, kappa, L234A L235A)
heavy: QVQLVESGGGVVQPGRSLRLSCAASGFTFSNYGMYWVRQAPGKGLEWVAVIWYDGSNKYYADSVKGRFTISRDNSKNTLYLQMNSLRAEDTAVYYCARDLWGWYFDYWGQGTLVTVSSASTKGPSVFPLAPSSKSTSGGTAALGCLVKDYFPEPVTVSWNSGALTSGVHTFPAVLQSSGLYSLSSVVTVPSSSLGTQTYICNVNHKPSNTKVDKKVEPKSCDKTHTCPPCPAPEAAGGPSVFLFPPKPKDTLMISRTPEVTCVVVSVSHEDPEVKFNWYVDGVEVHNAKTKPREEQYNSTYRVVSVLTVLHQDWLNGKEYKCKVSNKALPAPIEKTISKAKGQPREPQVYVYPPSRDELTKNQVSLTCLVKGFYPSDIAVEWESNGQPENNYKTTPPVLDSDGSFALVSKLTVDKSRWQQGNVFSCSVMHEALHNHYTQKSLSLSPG
light: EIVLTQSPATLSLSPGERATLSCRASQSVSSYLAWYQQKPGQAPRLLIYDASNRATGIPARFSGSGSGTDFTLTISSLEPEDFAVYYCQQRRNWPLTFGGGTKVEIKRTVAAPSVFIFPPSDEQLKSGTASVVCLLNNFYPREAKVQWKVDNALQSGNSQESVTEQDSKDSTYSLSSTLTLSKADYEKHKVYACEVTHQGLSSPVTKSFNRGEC
scFv: B1 scFv
notes: Three polypeptides A, B and C; also called Her2×Dec205

What was measured:
Assay in all cases: homogeneous cell binding assay on transfected HEK293-6e cells as in Example 8 (data not shown)
Human HER2 = molecular target: T1, Human HER2 (human, UniProt P04626 23-1255)
T1 construct: whole, on cells
Description: (§1) Binding of constructs to target was assessed in HEK293-6e cells transiently expressing the target of interest.
(§2) Parental cells were maintained in 250 mL Erlenmeyer flasks (Corning, 431144) at 37° C., 5% CO2 in a rotating humidified incubator at 115 rpm. HEK293-6e cells were re-suspended to 1×10⁶ cells/mL in fresh Freestyle media before transfection. […] The DNA vectors that were used to express targets of interest were pTT5 vectors with full length targets of interest including Human Dectin-1, Human DEC205, Human CD40, Human HER2, Human ROR1 and mock vector containing GFP. The cells were incubated for 24 hours at 37° C. and 5% CO2 in a rotating humidified incubator at 115 rpm.
(§3) Construct samples were prepared at starting concentrations of 40 nM final in FACS buffer or 1×PBS pH 7.4 (Gibco, 1001023)+2% FBS in Eppendorf tubes. Samples were titrated in duplicate 1:4 down to 0.04 nM directly in the 384-well black optical bottom assay plate (Thermo Fisher, 142761). HEK293-6e cells expressing target of interest were harvested and re-suspended in FACS buffer at 10,000 cells per 30 μl. To visualize cell nuclei as a focusing channel, Vybrant™ DyeCycle™ Violet nuclear stain (Life Tech, V35003) was added to cells at 2 μM final concentration. To detect binding of test construct sample to cells, Goat anti-Human IgG Fc A647 (Jackson ImmunoResearch, 115-605-071) was added to cells at 0.6 μg/mL final. The cells were vortexed briefly to mix and plated at 10,000 cells/well. The plate was incubated at room temperature for 3 hours before scanning. Data analysis was performed on the CellInsight™ with the HCS high content screening platform (Thermo Scientific), using BioApplication “CellViability” with a 10× objective. Samples were scanned on the 385 nm channel to visualize nuclear staining and channel 650 nm to assess cell binding. The mean object average fluorescence intensity of A647 was measured on channel 2 to determine binding intensity on all cell conditions.

Human CD40 = molecular target: T2, Human CD40 (human, UniProt P25942 21-277)
T2 construct: whole, on cells
T2 sequence (P25942 21-277): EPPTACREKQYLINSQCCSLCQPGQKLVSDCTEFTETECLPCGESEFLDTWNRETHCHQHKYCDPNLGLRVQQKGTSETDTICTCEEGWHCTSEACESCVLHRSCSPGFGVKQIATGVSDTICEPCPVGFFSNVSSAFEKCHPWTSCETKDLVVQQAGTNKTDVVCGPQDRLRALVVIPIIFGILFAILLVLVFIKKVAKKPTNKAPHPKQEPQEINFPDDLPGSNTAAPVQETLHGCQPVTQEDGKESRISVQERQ
Description: as §1, §2, §3

Human DEC205 = molecular target: T3, Human DEC205 (human, UniProt O60449 28-1722)
T3 construct: whole, on cells
T3 sequence (O60449 28-1722): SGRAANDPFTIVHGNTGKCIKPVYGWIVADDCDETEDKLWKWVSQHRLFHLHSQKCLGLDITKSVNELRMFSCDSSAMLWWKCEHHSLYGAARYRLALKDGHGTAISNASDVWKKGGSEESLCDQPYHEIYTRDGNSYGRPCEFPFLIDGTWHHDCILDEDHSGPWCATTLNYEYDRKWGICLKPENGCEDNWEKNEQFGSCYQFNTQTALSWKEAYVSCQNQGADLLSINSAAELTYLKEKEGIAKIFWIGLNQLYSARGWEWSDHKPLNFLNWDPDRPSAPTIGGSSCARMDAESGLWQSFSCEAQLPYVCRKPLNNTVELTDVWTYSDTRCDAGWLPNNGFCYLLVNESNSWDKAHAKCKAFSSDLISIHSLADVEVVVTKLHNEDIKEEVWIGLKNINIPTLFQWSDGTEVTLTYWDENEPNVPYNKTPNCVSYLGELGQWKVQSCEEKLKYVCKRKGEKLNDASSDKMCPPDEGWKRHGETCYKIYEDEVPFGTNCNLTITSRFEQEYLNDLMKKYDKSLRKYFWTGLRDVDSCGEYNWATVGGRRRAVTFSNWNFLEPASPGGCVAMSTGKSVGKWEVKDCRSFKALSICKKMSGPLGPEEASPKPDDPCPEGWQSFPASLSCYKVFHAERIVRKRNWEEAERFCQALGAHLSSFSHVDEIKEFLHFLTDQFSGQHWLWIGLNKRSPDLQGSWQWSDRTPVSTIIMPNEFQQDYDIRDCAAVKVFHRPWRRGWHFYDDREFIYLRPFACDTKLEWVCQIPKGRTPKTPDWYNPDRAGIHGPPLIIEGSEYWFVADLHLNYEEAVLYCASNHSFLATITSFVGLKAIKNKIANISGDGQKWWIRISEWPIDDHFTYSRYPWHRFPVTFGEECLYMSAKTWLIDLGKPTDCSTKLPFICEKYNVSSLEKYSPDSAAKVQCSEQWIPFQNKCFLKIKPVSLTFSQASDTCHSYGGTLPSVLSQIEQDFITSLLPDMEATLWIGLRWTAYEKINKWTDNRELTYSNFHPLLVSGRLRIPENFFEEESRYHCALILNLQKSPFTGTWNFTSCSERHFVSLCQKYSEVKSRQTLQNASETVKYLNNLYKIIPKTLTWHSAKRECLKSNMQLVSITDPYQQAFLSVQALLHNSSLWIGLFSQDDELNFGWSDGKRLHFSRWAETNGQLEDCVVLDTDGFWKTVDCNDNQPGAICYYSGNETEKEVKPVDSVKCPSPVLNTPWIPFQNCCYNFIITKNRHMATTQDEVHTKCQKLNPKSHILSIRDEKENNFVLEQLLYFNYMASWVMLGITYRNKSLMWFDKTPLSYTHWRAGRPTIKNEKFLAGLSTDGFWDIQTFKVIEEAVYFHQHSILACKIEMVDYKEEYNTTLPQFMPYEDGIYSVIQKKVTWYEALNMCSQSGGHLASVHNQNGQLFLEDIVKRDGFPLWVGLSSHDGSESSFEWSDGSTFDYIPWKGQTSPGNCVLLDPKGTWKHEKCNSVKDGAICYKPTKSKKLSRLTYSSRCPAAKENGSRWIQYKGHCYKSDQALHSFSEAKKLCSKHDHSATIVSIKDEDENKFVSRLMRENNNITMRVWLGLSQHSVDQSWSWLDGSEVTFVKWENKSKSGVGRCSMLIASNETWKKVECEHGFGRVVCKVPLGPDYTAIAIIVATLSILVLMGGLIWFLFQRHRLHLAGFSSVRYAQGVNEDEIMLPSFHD
Description: as §1, §2, §3

| Binder | binding result (Human HER2) | binding result (Human CD40) | binding result (Human DEC205) |
| --- | --- | --- | --- |
| B1 | binds | binds |  |
| B2 | binds |  | binds |
